The values below come from patent US20200200750A1 (E AND S HEALTHCARE, published 2020).

The experiment deals with T1, human thioredoxin-1 (Trx1) protein (human, UniProt P10599 1-105).
T1 construct: also called naked Trx1; antigen
T1 sequence (looked up): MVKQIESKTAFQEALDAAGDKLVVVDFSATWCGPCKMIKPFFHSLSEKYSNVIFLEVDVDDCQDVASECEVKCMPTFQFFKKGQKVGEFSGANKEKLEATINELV
The experiment can be described thus: ELISA on coated Trx1 (100 ng/well), antibody diluted 1/5 from 0.1 µM, fit with Prism. (In general: An ELISA detects its analyte on a solid surface through an enzyme-linked reagent.)

B1: monoclonal antibody B266-1 (antibody, V domains shown)
VH: EVQLQQSGAELVKPGASVKLSCTASGFNIKDTFMHWVKQRPEQGLEWIGRIDPANGNTKYDPKFQGKATITADTSSNTAYLQLSSLTSEDTAVYYCALLQYSAMDYWGQGTSVTVSS
VL: QIVLTQSPAIMSASPGEKVTMTCSASSRISYMYWYQQKPGTSPKRWIYDTSKLASGVPARFSGSGSGTSYSLTISTMEAEDAATYYCHQRSSYPTFGAGTKLELKS
For orientation: Kd means the free concentration of one partner at which half of the binding sites on the other are occupied at equilibrium, for simple one-to-one binding. Lower therefore signals higher affinity. B1: the Kd was determined as 0.011 nM.
